PMC11717359, “A new pipeline SPICE identifies novel JUN-IKZF1 composite elements”

What was measured:
[1] = biological target: c-JUN, recombinant;c-FOS, recombinant (Homo sapiens;Homo sapiens, UniProt P05412;P01100 1-331;1-380, |); test: EMSA; 300 ng AP1; EMSA per LI-COR kit protocol (829-07910), 100 nM IR700 probe, 4-12% TBE gel in 0.5x TBE; binding buffer, pH and temperature not stated; conditions: protein: commercial;commercial; tags: ;; copies: 1;1; label: IRDye 700
[2] = biological target: IKZF1 (Ikaros), recombinant;c-JUN, recombinant;c-FOS, recombinant (Homo sapiens;Homo sapiens;Homo sapiens, UniProt Q13422;P05412;P01100 1-519;1-331;1-380, ||); test: EMSA; 300 ng AP1 + 1 ug IKZF1; stronger than AP1 alone; EMSA per LI-COR kit protocol (829-07910), 100 nM IR700 probe, 4-12% TBE gel in 0.5x TBE; binding buffer, pH and temperature not stated; conditions: protein: commercial;commercial;commercial; tags: ;;; label: IRDye 700
IKZF1 (Ikaros), recombinant;c-JUN, recombinant;c-FOS, recombinant, sequence (Q13422 whole entry, chain 1 of 3): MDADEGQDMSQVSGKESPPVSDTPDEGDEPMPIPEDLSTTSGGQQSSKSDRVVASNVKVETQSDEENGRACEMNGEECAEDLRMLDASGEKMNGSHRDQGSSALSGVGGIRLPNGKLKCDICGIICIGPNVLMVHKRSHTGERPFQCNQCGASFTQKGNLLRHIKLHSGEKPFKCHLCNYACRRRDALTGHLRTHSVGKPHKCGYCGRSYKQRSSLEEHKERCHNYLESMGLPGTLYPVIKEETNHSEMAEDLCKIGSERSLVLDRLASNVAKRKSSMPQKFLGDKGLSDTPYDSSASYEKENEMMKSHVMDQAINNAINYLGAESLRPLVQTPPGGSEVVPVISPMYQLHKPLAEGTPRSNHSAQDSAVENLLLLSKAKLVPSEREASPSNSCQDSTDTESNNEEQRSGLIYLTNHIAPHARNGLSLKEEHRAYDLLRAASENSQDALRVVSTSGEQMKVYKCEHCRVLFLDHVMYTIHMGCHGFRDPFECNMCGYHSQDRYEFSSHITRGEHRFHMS
IKZF1 (Ikaros), recombinant;c-JUN, recombinant;c-FOS, recombinant, sequence (P05412 whole entry, chain 2 of 3): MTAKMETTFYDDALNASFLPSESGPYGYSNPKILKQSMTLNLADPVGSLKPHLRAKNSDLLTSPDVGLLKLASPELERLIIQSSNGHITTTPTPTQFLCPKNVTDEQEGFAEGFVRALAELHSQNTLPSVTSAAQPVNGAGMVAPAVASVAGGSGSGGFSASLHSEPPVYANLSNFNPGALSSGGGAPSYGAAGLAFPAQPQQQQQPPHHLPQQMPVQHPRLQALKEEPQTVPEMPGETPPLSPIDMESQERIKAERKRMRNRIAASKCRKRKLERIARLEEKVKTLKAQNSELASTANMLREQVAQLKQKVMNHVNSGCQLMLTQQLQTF
IKZF1 (Ikaros), recombinant;c-JUN, recombinant;c-FOS, recombinant, sequence (P01100 whole entry, chain 3 of 3): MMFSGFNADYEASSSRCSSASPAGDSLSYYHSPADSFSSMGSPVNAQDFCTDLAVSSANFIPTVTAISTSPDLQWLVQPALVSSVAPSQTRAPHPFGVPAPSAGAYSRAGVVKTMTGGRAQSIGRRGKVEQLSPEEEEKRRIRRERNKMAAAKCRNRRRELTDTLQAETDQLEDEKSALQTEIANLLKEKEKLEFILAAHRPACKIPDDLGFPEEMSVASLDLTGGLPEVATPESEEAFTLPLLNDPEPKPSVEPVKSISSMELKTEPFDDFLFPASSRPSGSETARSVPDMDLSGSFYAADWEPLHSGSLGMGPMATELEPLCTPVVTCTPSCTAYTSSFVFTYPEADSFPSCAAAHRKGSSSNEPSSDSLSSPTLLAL

c-JUN, recombinant;c-FOS, recombinant, sequence (P05412 whole entry, chain 1 of 2): as the sequence (P05412 whole entry, chain 2 of 3) above
c-JUN, recombinant;c-FOS, recombinant, sequence (P01100 whole entry, chain 2 of 2): as the sequence (P01100 whole entry, chain 3 of 3) above

B1: IL10 CNS9 WT probe (dsDNA)
DNA 1: GAGGTTGCAGTTTCGTTGTGAGTCAGGCCTGCTGA
DNA 2: TCAGCAGGCCTGACTCACAACGAAACTGCAACCTC
B1: binds [1]; binds [2].
